Laboratory results reported in PMC12915131, “Balanced Expression of the Diiron Oxygenase BioE Is Essential for Biotin Homeostasis in Elizabethkingia meningoseptica” (Advanced Science, 2025).

Legend:
[1] = biological target: Elizabethkingia meningoseptica BioE (Elizabethkingia meningoseptica); assay: SEC; Superdex 75 (Increase) column, 20 mM Tris-HCl pH 8.0, 300 mM NaCl; oligomeric state judged from retention volume
[2] = biological target: Chlamydia psittaci BioE (Chlamydia psittaci); assay: SPR; […], single-cycle kinetics, 1:1 Langmuir fit; […]

Sequence of stearoyl-ACP (E. coli acyl carrier protein carrying a C18 acyl group) (P0A6A8 2-78): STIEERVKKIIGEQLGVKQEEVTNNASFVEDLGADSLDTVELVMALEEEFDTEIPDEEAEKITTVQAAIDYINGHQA

| Substance | stoichiometry N [1] | Kd [2] [µM] |
| --- | --- | --- |
| Elizabethkingia meningoseptica BioE (enzyme) | 2 | – |
| stearoyl-ACP (E. coli acyl carrier protein carrying a C18 acyl group) (from UniProt P0A6A8 2-78) (natural protein) | – | 0.203 |
